Measured values published in patent US5985278A (Merck Patent Gesellschaft mit Beschrankter Haftung, priority 1994, dated 1999).
Values joined by “and” are separate entries in the source; they are usually repeats but may differ in a detail not shown here. Identical values can stand only once. Each block holds one molecule with its values, some of them ahead of it.

What was measured:
αvβ3 = molecular target: T1, αvβ3 (Homo sapiens, UniProt P05106+P06756); experiment: Direct competition assay, vitronectin binding to isolated αvβ3; conditions: isolated receptor
T1 construct: αVβ3 was purified from human placenta; from tissue; host or cells: human term placenta
T1 sequence (P06756 31-889 limits assumed): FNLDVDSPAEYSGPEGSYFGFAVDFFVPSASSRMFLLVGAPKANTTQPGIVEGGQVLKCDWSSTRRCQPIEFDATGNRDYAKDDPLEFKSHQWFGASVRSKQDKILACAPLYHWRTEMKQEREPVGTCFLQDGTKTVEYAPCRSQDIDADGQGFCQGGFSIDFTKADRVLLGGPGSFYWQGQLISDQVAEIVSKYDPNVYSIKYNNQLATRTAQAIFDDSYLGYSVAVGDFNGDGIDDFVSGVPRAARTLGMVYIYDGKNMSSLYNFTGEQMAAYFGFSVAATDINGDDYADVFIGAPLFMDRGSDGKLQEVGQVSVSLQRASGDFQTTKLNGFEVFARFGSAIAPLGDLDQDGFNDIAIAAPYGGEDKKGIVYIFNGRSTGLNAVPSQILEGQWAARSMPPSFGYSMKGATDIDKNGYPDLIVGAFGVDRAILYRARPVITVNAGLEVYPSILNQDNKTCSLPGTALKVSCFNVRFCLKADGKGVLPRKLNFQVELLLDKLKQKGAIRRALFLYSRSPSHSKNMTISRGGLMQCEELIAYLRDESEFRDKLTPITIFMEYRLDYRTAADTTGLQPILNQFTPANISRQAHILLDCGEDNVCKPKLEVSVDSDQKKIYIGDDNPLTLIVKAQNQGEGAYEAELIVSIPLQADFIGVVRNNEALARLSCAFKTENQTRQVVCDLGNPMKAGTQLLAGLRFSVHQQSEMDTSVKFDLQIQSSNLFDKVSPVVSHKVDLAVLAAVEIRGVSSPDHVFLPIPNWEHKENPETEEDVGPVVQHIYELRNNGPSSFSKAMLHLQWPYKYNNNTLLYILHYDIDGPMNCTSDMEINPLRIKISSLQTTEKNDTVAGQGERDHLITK
T1 sequence (P06756 891-1048 limits assumed): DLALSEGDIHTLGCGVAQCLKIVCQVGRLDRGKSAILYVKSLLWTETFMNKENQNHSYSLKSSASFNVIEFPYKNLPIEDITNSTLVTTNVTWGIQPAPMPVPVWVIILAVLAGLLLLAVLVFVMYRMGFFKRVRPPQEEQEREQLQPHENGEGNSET
T1 sequence (P05106 27-788): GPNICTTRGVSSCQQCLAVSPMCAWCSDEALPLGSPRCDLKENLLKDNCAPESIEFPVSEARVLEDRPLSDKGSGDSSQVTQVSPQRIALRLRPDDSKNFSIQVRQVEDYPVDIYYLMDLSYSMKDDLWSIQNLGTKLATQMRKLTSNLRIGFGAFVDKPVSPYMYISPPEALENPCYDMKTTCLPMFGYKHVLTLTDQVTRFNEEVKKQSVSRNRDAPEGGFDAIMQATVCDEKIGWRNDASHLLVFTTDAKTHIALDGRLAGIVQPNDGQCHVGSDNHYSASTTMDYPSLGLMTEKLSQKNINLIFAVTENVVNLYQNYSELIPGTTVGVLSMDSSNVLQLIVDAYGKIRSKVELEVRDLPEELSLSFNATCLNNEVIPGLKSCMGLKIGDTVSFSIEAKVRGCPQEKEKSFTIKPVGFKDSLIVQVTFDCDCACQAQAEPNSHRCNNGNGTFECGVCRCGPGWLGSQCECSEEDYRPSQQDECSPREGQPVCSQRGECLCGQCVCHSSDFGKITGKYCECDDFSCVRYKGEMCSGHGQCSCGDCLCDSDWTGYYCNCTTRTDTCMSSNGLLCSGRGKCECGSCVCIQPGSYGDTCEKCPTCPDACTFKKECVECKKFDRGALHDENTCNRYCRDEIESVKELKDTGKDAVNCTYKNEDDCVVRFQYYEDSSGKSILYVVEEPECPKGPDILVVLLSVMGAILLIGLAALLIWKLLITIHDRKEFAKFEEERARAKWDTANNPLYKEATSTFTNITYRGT
Method: The plate was washed once with buffer B (3% BSA (w/v), 100 mM NaCl, 1 mM MgCl2, 1 mM CaCl2, 10 mM MnCl2, 50 mM Tris-HCl; pH 7.4) and incubated 2 h at 20° C. in the same buffer.
After rinsing with buffer C (buffer B with BSA at 0.1% (w/v)) was added containing biotinylated ligand (1 μg ml^-1 end concentration) and serially diluted test peptides or proteins. After incubation (3 h, 30° C.), unbound ligand was washed from the plate by 3 rinses with buffer C, and incubation continued for 1 h with anti-biotin-alkaline phosphatase-conjugated antibody (1:10000 in buffer C) (Sigma) followed by PBS wash and detection of bound antibody with NBT-BCIP (Biorad) as substrate. ECM molecules and antibodies were routinely biotinylated and used in such an assay configuration.
Assays were routinely performed in triplicate or quadruplicate, and repeated at least 3 times to derive an IC50 from an unweighted sigmoid curve fit. Results were normalized against external control peptides to allow intra-assay comparison.

[1] = tested on: M21-L, M21-L4 and M21-L-IIb cells; experiment: DNA synthesis ([3H]-thymidine incorporation) in M21 variant lines; type: cell-based, human; conditions: M21-L and M21-LGpIIb, FIG. 9 B, D
Method: (§1) Adherent melanoma cells were detached (0.05% Trypsin/0.02% EDTA). Washed cells were seeded into 96-well flat-bottom microtest plates (1×10^4 cells per well) and cultured without (control) or in the presence of serially diluted antibodies in RPMI medium with 10% FCS. After 48 h, cells were pulse labelled for 18 h (18.5 kBeq [^3 H]-thymidine per well) and harvested. Incorporated radioactivity was measured and expressed as counts per minute.

[2] = in vivo; cited from earlier work
purified αvβ3 = experiment: ELISA on purified αvβ3; type: binding, human
M21 cells [3] = experiment: Flow cytometry (FACS) on M21; type: binding, human
Method: (§2) Cells were harvested with EDTA, washed, and 10^6 cells in PBS-1% BSA were incubated with MAb (10 μg ml^-1; 20 min, 4° C.). After washing and labelling (20 min, 4° C.) with goat anti-mouse Ig-FITC (Becton Dickinson), cells were incubated with propidium iodide before flow cytometry analysis (EPICS Profile II, Coulter). Living cells were selected by appropriate gates on the side and forward scatter. Fluorescein was excited at 488 nm with an argon ion laser and the emitted fluorescence (525 nm) was recorded. In some experiments, M21-L cells were stained following a brief fixation and permeabilization step (70% ethanol; 5 min×-20° C.).

M21-L cells = experiment: Flow cytometry (FACS) on M21-L; type: binding, human; conditions: relative to secondary antibody only
Method: as §2

M21-L-IIb cells = experiment: Flow cytometry (FACS) on M21-L-IIb; type: binding, human; conditions: relative to secondary antibody only
Method: as §2

M21-L4 cells = experiment: Flow cytometry (FACS) on M21-L4; type: binding, human; conditions: relative to secondary antibody only
Method: as §2

M21-L12 cells = experiment: Flow cytometry (FACS) on M21-L12; type: binding, human; conditions: relative to secondary antibody only
Method: as §2

UCLA-P3 cells = experiment: Flow cytometry (FACS) on UCLA-P3; type: binding, human; conditions: relative to secondary antibody only
Method: as §2

WM793 cells [4] = experiment: Flow cytometry (FACS) on WM793; type: binding, human; conditions: relative to secondary antibody only
Method: as §2

B16F10 cells [5] = experiment: Flow cytometry (FACS) on B16F10; type: binding; conditions: murine cell
Method: as §2

[6] = tested on: human melanoma and carcinoma cell lines; experiment: αV-mediated cell attachment to vitronectin, cell line panel; type: cell-based
Method: (§3) Cell Attachment Assays were as previously described (Goodman et al., 1991), using hexosaminidase activity (Landegren, 1984) to detect attached cells. Dilutions and cell suspensions were in attachment buffer (RPMI, 1% BSA, 25 mM HEPES; pH 7.4). Matrix proteins were coated onto 96- or 48-well plates, the wells were blocked with BSA and serially diluted MAbs were added to the wells followed by cells (2.5×10^4 -5×10^4). After 1 h at 37° C., non-adherent cells were washed away and attached cells counted against a standard curve run in parallel. Inhibition of attachment was calculated by using wells with no MAbs as reference. Typically, over 70% of added cells had attached to vitronectin at 1 h. Cell attachment to wells coated with BSA alone was routinely less than 5% of specifically attached cells.

M21 cells [7] = experiment: M21 cell attachment to vitronectin; type: cell-based, human; conditions: maximal block
Method: as §3

αvβ5 (UCLA-P3 cells) = experiment: Cell attachment to vitronectin mediated by αvβ5 (UCLA-P3 cells); type: cell-based, human
Method: as §3

WM793 cells [8] = experiment: WM793 cell attachment to vitronectin; type: cell-based, human; conditions: FIG. 4e,f
Method: as §3

αvβ1 (V+B2 cells) = experiment: Cell attachment to vitronectin mediated by αvβ1 (V+B2 cells); type: cell-based; conditions: FIG. 11
Method: as §3

[9] = tested on: αvβ3 (WM164 and M21 cells); experiment: Cell attachment to vitronectin mediated by αvβ3 (WM164 and M21 cells); type: cell-based, human; conditions: FIG. 11
Method: as §3

B16F10 cells [10] = experiment: B16F10 cell attachment to vitronectin; type: cell-based; conditions: murine cell
Method: as §3

M21 cells [11] = experiment: M21 cell attachment to laminin and collagen; type: cell-based, human; conditions: M21, FIG. 5
Method: as §3

M21 tumors = experiment: Subcutaneous M21 tumor development in nude mice; type: in vivo, BALB/c nu/nu mice
Method: (§4) Tumor cells in exponential growth were harvested with EDTA, washed and examined for viability by trypan blue dye exclusion. Viability was between 96-99%. For primary tumor growth, cells (0.5×10^6 cells in 0.2 ml PBS++) were injected subcutaneously into the flanks of nude mice. Tumor growth was followed by measuring tumor diameters with callipers and the tumor volume was calculated using an approximated formula for a prolate ellipsoid: […]
(§5) where a is the longest axis of the tumor and b the shortest. A minimum of eight animals was used per group.
(§6) For experimental lung metastasis, cells were harvested (0.05% Trypsin/0.02%EDTA) and were injected into the tail vein of nude mice (0.5×10^6 cells in 0.2 ml PBS++). 7 weeks later the animals were sacrificed, the lungs removed and fixed in a Bouins' solution, and the tumor foci on the surface of the lungs counted. For antibody treatment, harvested and washed cells were incubated with purified endotoxin free MAbs (70 μg per 10^6 cells 0.5 ml PBS++) for 30 min at 20° C. in an end-over-end rotator before dilution to 0.5×10^6 cells in 0.2 ml PBS and injection. Cells viability was assessed by Trypan blue dye exclusion before and after completing the injection schedule, where no significant difference was found (viability pre-injection=viability post injection ±5%). The tumor inhibition data was assessed using the 2-tailed Student T-test.

M21-L = experiment: Subcutaneous M21-L tumor development in nude mice; type: in vivo, BALB/c nu/nu mice; conditions: FIG. 7b
Method: as §4, §5, §6

M21 tumor foci = experiment: Lung colonization experimental metastasis assay; type: in vivo, BALB/C nu/nu mice
Method: as §6

M21 cells [12] = experiment: M21 cell proliferation assay; type: cell-based, human; design: dose or concentration left out as unconfirmed; conditions: M21, antibody (FIG. 8a)
Method: […] Growth and viability were estimated by Trypan blue dye exclusion. Activation was measured by the MTT assay as described above, and cell numbers were counted daily using a cell counter (Coulter electronics).

M21 cells [13] = experiment: Antibody-directed cellular cytotoxicity (ADCC) with BALB/c microglia; type: cell-based, human; conditions: up to 10^-7 M, murine microglia effector cells
Method: Preparation of BALB/C microglial cells and conditions for ADCC and antibody-effector cell mediated cytostasis (AECM) were essentially as described (Sutter et al., 1991). M21 cells were pulsed for 18 h with ^3 H-thymidine (18 kBq per 4×10^3 cells per well) and incubated on 96-well plates with BALB/C microglia (5×10^4 cells per well) in 200 μl DMEM/FCS (10%) in the presence of antibodies. After 48 hrs, [^3 H] label retained in the nuclear compartment of target cells was measured. MAb dependent cytotoxicity was calculated using the formula: [(experimental ccpm-spontaneous ccpm)/(maximum ccpm-spontaneous ccpm)]×100.

M21 cells [14] = experiment: DNA synthesis ([3H]-thymidine incorporation) in M21; type: cell-based, human; design: dose or concentration left out as unconfirmed
Method: as §1

M21 cells [15] = experiment: Complement dependent cytotoxicity (CDC); type: cell-based, human; conditions: not shown
Method: M21 cells (10,000) were plated in a 96-well plate with 50 μl of complete medium and 20 μl of antibodies. Rabbit serum (50 μl, 1:5; Behring) was added as source of complement and plate was incubated (37° C.; 60 min). Lysis was quantified by MTT technique (Mosmann, 1983). Percent of lysis was calculated using wells with 1% Tween-20 as 100% lysed controls, and without antibody as 0% lysed control.

Molecule: GRGDSPK [Gly-Arg-Gly-Asp-Ser-Pro-Lys]
IC50 (αvβ3): ~2000 nM

Molecule: CC(=O)O[C@H]1C(=O)[C@@]2(C)[C@H]([C@H](OC(=O)c3ccccc3)[C@]3(O)C[C@H](OC(=O)[C@H](O)[C@@H](NC(=O)c4ccccc4)c4ccccc4)C(C)=C1C3(C)C)[C@]1(OC(C)=O)CO[C@@H]1C[C@@H]2O [Taxol]
DNA synthesis, positive control [1]: completely suppresses

Molecule: RGDS: RGD-peptide (SEQ ID NO:6)
serum half-life [2]: 8 min

50% binding to αvβ3 in ELISA (purified αvβ3; screening ELISA): 10 to 20 ng/mL
EC50 (purified αvβ3; screening ELISA, read-out: 50% binding to αvβ3 in ELISA): 0.05 to 0.1 nM
IC50 in cellular assay [6]: ~ 100 ng ml^-1
IC50 ([6]; antibody MW 150,000, read-out: IC50, αV-mediated cell attachment): 0.3 to 1 nM
IC50, attachment to vitronectin on αvβ5 (UCLAP3) (αvβ5 (UCLA-P3 cells); FIG. 4c,d): ~ 30 ng ml^-1
IC50, cell attachment mediated by αvβ5 (UCLA-P3 cells) (αvβ5 (UCLA-P3 cells); vitronectin, FIG. 11): ~ 0.1 μg ml^-1
IC50, WM793 attachment to vitronectin (WM793 cells [8]): ~ 60 ng ml^-1
IC50, cell attachment mediated by αvβ1 (V+B2 cells) (αvβ1 (V+B2 cells)): ~ 0.1 μg ml^-1
IC50, αvβ3 attachment (WM164 and M21 cells) [9]: ~ 0.5 μg ml^-1
B1: 17E6: murine IgG1 monoclonal antibody against human αv-integrin chain, from hybridoma 272-17E6 (DSM ACC2160) (antibody, V domains shown)
VH: QVQLQQSGAELAEPGASVKMSCKASGYTFSSFWMHWVKQRPGQGLEWIGYINPRSGYTECNEIFRDKATMTADTSSSTAYMQLSGLTSEDSAVYYCASFLGRGAMDYWGQGTSVTVSS
VL: DIQMTQTTSSLSASLGDRVIISCRASQDISNYLSWYQQKPDGTVKLLIFYTSKLHSGVPSRFSGSGSGTDYSLTISNLDQEDIATYFCQQGNTFPYTFGGGTKVEMR
50% saturation in ELISA on isolated αvβ3 (purified αvβ3; FIG. 10): ~ 1 ng ml^-1
Reactivity in flow cytometry, M21 (αvβ3; αvβ5) (M21 cells [3]; relative to secondary antibody only, MAb 10 μg ml^-1): ++ (4-9 (++))
FACS reaction with M21 (M21 cells [3]; αv-expressing line): strongly
Reactivity in flow cytometry, M21-L (M21-L cells): - (1-2 (-))
Reactivity in flow cytometry, M21-L-llb (αllbβ3) (M21-L-IIb cells): - (1-2 (-))
Reactivity in flow cytometry, M21-L4 (M21-L4 cells): ++ (4-9 (++))
Reactivity in flow cytometry, M21-L12 (M21-L12 cells): - (1-2 (-))
Reactivity in flow cytometry, UCLA-P3 (αvβ5) (UCLA-P3 cells): +++ (>9 (+++))
Reactivity in flow cytometry, WM793 (αvβ3; αvβ5) (WM793 cells [4]): +++ (>9 (+++))
FACS reaction with B16F10 (B16F10 cells [5]): did not react
initial attachment to vitronectin of cells reacting in FACS with 17E6 ([6]; hybridoma supernatants, FIG. 3): strongly blocked
block of M21 initial attachment to vitronectin (M21 cells [7]): ~ 85% and ~ 90%
B16F10 attachment on vitronectin (B16F10 cells [10]): not affected
cell attachment to other matrix substrates (laminin, collagen) (M21 cells [11]): lack of effect
tumors and metastases at sacrifice (M21 tumors; 6 months, lungs, liver, kidney, spleen, colon, stomach, body cavities): neither subcutaneous tumors nor metastases
tumors taken in the presence of antibody (M21 tumors; M21 cells subcutaneously co-injected with antibody): 0/32
experiments in which subcutaneous development of M21 tumors was blocked (M21 tumors; mouse, in vivo): 4/4
time animals remain tumor free (M21 tumors; mouse, in vivo): > 6 months
subcutaneous M21-L growth / take (M21-L): unaffected
Tumor Take (M21 tumor foci; 7 weeks after tail vein injection): 78
Number of Tumor Foci, Mean ± SEM (M21 tumor foci; lung surface, 7 weeks): 8 ± 7.7
Number of Tumor Foci, Median (M21 tumor foci; lung surface, 7 weeks): 5
reduction of numbers of tumor colonies (M21 tumor foci; pre-incubation of M21 with antibody, tail-vein injection): 90%
% Control (M21 tumor foci; tumor foci relative to M21 control): 9%
kinetic of cell growth and saturation density (M21 cells [12]): not greatly influenced
ADCC against M21 (M21 cells [13]): did not mediate ADCC
thymidine incorporation in M21 cells (M21 cells [14]): no effect
complement mediated lysis on M21 cells (M21 cells [15]): did not affect
